According to paper PMC12503259, “Establishment of an in vivo analytical method for detecting total anti-UFH activity and pharmacokinetic study in PS and R15 in rats” (PLOS One, 2025):

Test: Pharmacokinetic study in Wistar rats, total anti-heparin activity in plasma (fixed UFH added, residual UFH by anti-FXa kit)
Format: in vivo
Protocol: Processing of Plasma Samples: 100 μL of the unknown plasma sample was added to 500 μL of 75% methanol (methanol: water = 75:25, v/v) and vortex-mixed for 5 seconds. The mixture was then centrifuged at 12,000 r/min for 10 minutes at 25°C. The supernatant (500 μL) was collected and dried under nitrogen at 60°C. Subsequently, UFH (0.14 U·mL^-1 for PS and 0.15 U·mL^-1 for R15; 120 μL) was added, and the mixture was vigorously shaken at room temperature for 10 minutes. The residual UFH content was measured using the Heparin Anti-FXa assay kit.
The detailed procedure is as follows: Accurately pipette 40 μL of the sample into a 96-well plate. Place the plate in a microplate shaker. Using a multichannel pipette, add 40 μL of reagent R1 and mix by shaking. Incubate at 37 °C for exactly 3 minutes (start timing upon addition of R1; at 50 seconds, begin shaking with the microplate shaker for 1 minute, then place the plate in the incubator). Remove the 96-well plate from the incubator and place it on the open microplate shaker. Using a multichannel pipette, add 40 μL of reagent R2 to each well and incubate at 37 °C for 6 minutes (after adding R2, at 3 minutes and 50 seconds, open the microplate shaker and shake for 4 minutes, then return the plate to the incubator). Remove the 96-well plate from the incubator and place it on the open microplate shaker. Quickly add 40 μL of reagent R3 using a multichannel pipette and shake until 9 minutes and 10 seconds. At 9 minutes and 30 seconds, add 80 μL of 20% acetic acid to each well to terminate the reaction. Measure the absorbance at 405 nm using a microplate reader (Multiskan FC, Thermo Fisher US).
Eight Wistar rats (approximately 250 g; equally divided by sex and acclimatized for 1 week in the animal facility) were used for profiling pharmacokinetics of PS. Each rat was cannulated in carotid artery to collect blood the day before the experiment. PS was injected through the tail vein and blood samples were collected at 0 min, 1 min, 3 min, 5 min, 7 min, 9 min, 11 min, 15 min, 20 min, 30 min, 60 min and 120 min in a tube containing 4% sodium citrate. Plasma was achieved by centrifugation at 8000 r/min for 10 min, and stored in the refrigerator at −80°C. […]
During the analysis of actual samples, a standard curve and a series of calibration standards were established for each analytical batch to determine the concentration of PS and R15 in plasma. The concentrations were plotted on the X-axis, and the data were fitted using Equation (3).
Weighted least squares regression was used for the calculations. The Optical Density (OD) values of the unknown biological samples were substituted into the equation to determine the concentration of PS and R15, respectively.
Pharmacokinetic parameters of PS were calculated by WinNonlin 6.4, and all data were processed by Microsoft Excel 2013 and GraphPad Prism 8.3.

[1] = PS 300 U/kg iv, rat 1# (male), single animal
[2] = PS 300 U/kg iv, rat 2# (male), single animal
[3] = PS 300 U/kg iv, rat 3# (male), single animal, not included in mean
[4] = PS 300 U/kg iv, rat 6# (male), single animal
[5] = PS 300 U/kg iv, rat 11# (female), single animal
[6] = PS 300 U/kg iv, rat 12# (female), single animal
[7] = PS 300 U/kg iv, rat 13# (female), single animal
[8] = PS 300 U/kg iv, rat 14# (female), single animal, not included in mean
[9] = PS 300 U·kg^-1 single iv tail vein, Wistar rats, Total (male and female), mean ± SD, n = 6, rats 3# and 14# excluded
[10] = PS 300 U·kg^-1 single iv tail vein, Wistar rats, female, mean ± SD, rat 14# excluded
[11] = PS 300 U·kg^-1 single iv tail vein, Wistar rats, male, mean ± SD, rat 3# excluded

Question: With Protamine sulfate [PS] as the substance, how does the plasma concentration (PS 300 U/kg iv, 1 min, Mean±SD) read?
Answer: 12190 ± 1890 ng/mL

Question: And the plasma concentration (PS 300 U/kg iv, 3 min, Mean±SD)?
Answer: 3410 ± 1620 ng/mL

Question: And the plasma concentration (PS 300 U/kg iv, 5 min, Mean±SD)?
Answer: 1760 ± 440 ng/mL

Question: What about the plasma concentration (PS 300 U/kg iv, 7 min, Mean±SD) of the same substance?
Answer: 910 ± 290 ng/mL

Question: What about the plasma concentration (PS 300 U/kg iv, 9 min, Mean±SD) of the same substance?
Answer: 820 ± 260 ng/mL

Question: What about the plasma concentration (PS 300 U/kg iv, 11 min, Mean±SD) of the same substance?
Answer: 670 ± 210 ng/mL

Question: And the plasma concentration (PS 300 U/kg iv, 15 min, Mean±SD)?
Answer: 550 ± 90 ng/mL

Question: What about the plasma concentration (PS 300 U/kg iv, 20 min, Mean±SD column (one rat)) of the same substance?
Answer: 430 ng/mL

Question: What about the plasma concentration (PS 300 U/kg iv, 20 min, rat 6#) of the same substance?
Answer: 430 ng/mL

Question: And the AUC [1]?
Answer: 35.86 min･µg･mL^-1

Question: What about the CL [1] of the same substance?
Answer: 53.74 mL･min^-1･kg^-1

Question: What about the Cmax [1] of the same substance?
Answer: 12.10 µg･mL^-1

Question: And the MRT [1]?
Answer: 2.51 min

Question: What about the T1/2 [1] of the same substance?
Answer: 1.72 min

Question: And the Vd [1]?
Answer: 134 mL･kg^-1

Question: And the AUC [2]?
Answer: 42.97 min･µg･mL^-1

Question: And the CL [2]?
Answer: 41.70 mL･min^-1･kg^-1

Question: And the Cmax [2]?
Answer: 15.14 µg･mL^-1

Question: What about the MRT [2] of the same substance?
Answer: 3.20 min

Question: And the T1/2 [2]?
Answer: 7.06 min

Question: What about the Vd [2] of the same substance?
Answer: 425 mL･kg^-1

Question: And the AUC [3]?
Answer: 17.83 min･µg･mL^-1

Question: What about the Cmax [3] of the same substance?
Answer: 11.17 µg･mL^-1

Question: And the MRT [3]?
Answer: 1.12 min

Question: What about the AUC [4] of the same substance?
Answer: 45.62 min･µg･mL^-1

Question: What about the CL [4] of the same substance?
Answer: 39.21 mL･min^-1･kg^-1

Question: What about the Cmax [4] of the same substance?
Answer: 14.12 µg･mL^-1

Question: What about the MRT [4] of the same substance?
Answer: 4.40 min

Question: And the T1/2 [4]?
Answer: 8.65 min

Question: What about the Vd [4] of the same substance?
Answer: 489 mL･kg^-1

Question: And the AUC [5]?
Answer: 29.16 min･µg･mL^-1

Question: And the CL [5]?
Answer: 66.07 mL･min^-1･kg^-1

Question: And the Cmax [5]?
Answer: 12.55 µg･mL^-1

Question: And the MRT [5]?
Answer: 2.12 min

Question: And the T1/2 [5]?
Answer: 1.64 min

Question: What about the Vd [5] of the same substance?
Answer: 156 mL･kg^-1

Question: And the AUC [6]?
Answer: 33.06 min･µg･mL^-1

Question: And the CL [6]?
Answer: 55.19 mL･min^-1･kg^-1

Question: And the Cmax [6]?
Answer: 12.70 µg･mL^-1

Question: What about the MRT [6] of the same substance?
Answer: 2.49 min

Question: And the T1/2 [6]?
Answer: 2.18 min

Question: What about the Vd [6] of the same substance?
Answer: 173 mL･kg^-1

Question: What about the AUC [7] of the same substance?
Answer: 28.68 min･µg･mL^-1

Question: What about the CL [7] of the same substance?
Answer: 66.01 mL･min^-1･kg^-1

Question: And the Cmax [7]?
Answer: 9.40 µg･mL^-1

Question: And the MRT [7]?
Answer: 2.97 min

Question: What about the T1/2 [7] of the same substance?
Answer: 2.41 min

Question: And the Vd [7]?
Answer: 229 mL･kg^-1

Question: And the AUC [8]?
Answer: 18.80 min･µg･mL^-1

Question: And the CL [8]?
Answer: 97.21 mL･min^-1･kg^-1

Question: What about the Cmax [8] of the same substance?
Answer: 10.34 µg･mL^-1

Question: What about the MRT [8] of the same substance?
Answer: 1.46 min

Question: What about the T1/2 [8] of the same substance?
Answer: 1.20 min

Question: And the Vd [8]?
Answer: 168 mL･kg^-1

Question: What about the Cmax (PS 300 U·kg^-1 single iv tail vein, Wistar rats, Total (male and female), at 1 min, mean ± SD, n = 6, rats 3# and 14# excluded) of the same substance?
Answer: 12.67 ± 1.96 µg/mL

Question: And the AUC [9]?
Answer: 35.89 ± 7.07 µg·min/mL

Question: And the CL [9]?
Answer: 53.65 ± 11.49 mL/min/kg

Question: What about the MRT [9] of the same substance?
Answer: 2.95 ± 0.81 min

Question: What about the T1/2 [9] of the same substance?
Answer: 3.94 ± 3.08 min

Question: What about the Vd [9] of the same substance?
Answer: 268 ± 151 mL/kg

Question: And the AUC [10]?
Answer: 30.30 ± 2.40 µg·min/mL

Question: And the CL [10]?
Answer: 62.42 ± 6.26 mL/min/kg

Question: What about the Cmax [10] of the same substance?
Answer: 11.55 ± 1.86 µg/mL

Question: And the MRT [10]?
Answer: 2.53 ± 0.43 min

Question: And the T1/2 [10]?
Answer: 2.08 ± 0.40 min

Question: What about the Vd [10] of the same substance?
Answer: 186 ± 38 mL/kg

Question: And the AUC [11]?
Answer: 41.48 ± 5.05 µg·min/mL

Question: What about the CL [11] of the same substance?
Answer: 44.88 ± 7.77 mL/min/kg

Question: What about the Cmax [11] of the same substance?
Answer: 13.79 ± 1.55 µg/mL

Question: What about the MRT [11] of the same substance?
Answer: 3.37 ± 0.96 min

Question: What about the T1/2 [11] of the same substance?
Answer: 5.81 ± 3.63 min

Question: What about the Vd [11] of the same substance?
Answer: 349 ± 189 mL/kg
